The source of these data is publication PMC11422484 (Cell Reports, 2024).

The assay deals with full-length native GPC (strain Josiah) expressed on HEK293T cells (Lassa virus, strain Josiah, UniProt P08669). The experiment in a line: flow cytometry on cells. The settings on record: one partner purified.

B1: 25.10C IgG (antibody, V domains shown)
VH: QVQLQESGGGLVKPGGSLRLSCTASGFNFNKYNMNWVRQAPGKGLEWVSSISALSTYIYYADSLKGRFTVSRDNAKNSLFLQMNSLRDDDTAVYYCAREIRRASTWSADLWGRGTLVTVSS
VL: DIQMTQSPSSLSASVGDRVIITCRASQSISSSLNWYQQKPGKAPKLLIYAAVNLETGVPSRFSGSGFGTDFTLAISNVQPEDFATYYCQQSDTRTFGRGTKLDVK
notes: IgG1
For the molecule B1, the binding result is recorded as “binds”.
